Measured values published in article PMC6748660.

Target: full-length mScarlet-tagged tau (2N4R) (human) (UniProt P10636)
Assay: TIRF microscopy, condensate enrichment assay

GFP-tagged tau “bonsai” construct (fusion between the N- and C-terminus, lacking the MTBD)
fold enrichment within mScarlet-2N4R condensates over the lattice: 1.3 fold
